Data reported in paper PMC12764052.

Target: Pyruvate kinase M2 isoform (human (endogenous in AGS and HGC27)) (UniProt P14618)
Assay: cross-linking

Sequence of Pyruvate kinase M2 isoform, P14618 1-531 (natural protein; other documents disagree on this pair) (P14618 whole entry, canonical isoform): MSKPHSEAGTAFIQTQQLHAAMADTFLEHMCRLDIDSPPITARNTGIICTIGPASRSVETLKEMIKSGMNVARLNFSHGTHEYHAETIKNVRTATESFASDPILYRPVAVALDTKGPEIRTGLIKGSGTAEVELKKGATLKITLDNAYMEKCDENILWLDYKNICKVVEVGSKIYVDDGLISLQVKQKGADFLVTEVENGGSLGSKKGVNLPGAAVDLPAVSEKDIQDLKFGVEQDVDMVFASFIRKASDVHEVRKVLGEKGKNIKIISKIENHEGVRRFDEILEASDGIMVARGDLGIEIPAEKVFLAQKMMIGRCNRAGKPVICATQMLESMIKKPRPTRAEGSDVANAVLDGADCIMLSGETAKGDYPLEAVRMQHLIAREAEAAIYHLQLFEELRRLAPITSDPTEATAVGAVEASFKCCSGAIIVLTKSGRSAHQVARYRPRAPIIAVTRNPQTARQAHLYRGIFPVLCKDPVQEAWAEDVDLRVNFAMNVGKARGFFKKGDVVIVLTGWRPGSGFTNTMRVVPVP

Pyruvate kinase M2 isoform, P14618 1-531 (natural protein; other documents disagree on this pair)
stoichiometry N: 2
